Patent publication US11306156
Values joined by “and” are separate entries in the source; they are usually repeats but may differ in a detail not shown here. Identical values can stand only once. One block for each substance: values may come before it.

Experiments:
[1] = molecular target: D3H44 Fab heavy chain L143E_K145T; experiment: LCCA, L1:L2 DNA 1:3 normalised to 1:1, SPR of light chain tags; competitor m32
[2] = molecular target: D3H44 light chain Q124R_Q160K_T178R (Kabat) with N-terminal HA or FLAG tag; experiment: LCCA, SPR read-out of light-chain tags; light-chain DNA 1:3 normalized to 1:1; competing light chain m29
[3] = molecular target: D3H44 light chain Q124R_Q160K_T178R (Kabat) with N-terminal HA or FLAG tag; experiment: LCCA, SPR read-out of light-chain tags; light-chain DNA 1:3 normalized to 1:1; competing light chain m22
[4] = molecular target: D3H44 light chain Q124E_S131T_T178Y_T180E (Kabat) with N-terminal HA or FLAG tag; experiment: LCCA, SPR read-out of light-chain tags; light-chain DNA 1:3 normalized to 1:1; competing light chain m20
[5] = molecular target: D3H44 light chain Q124E_S131T_T178F_T180E (Kabat) with N-terminal HA or FLAG tag; experiment: as above
[6] = molecular target: D3H44 light chain Q124E_S176L_T180E (Kabat) with N-terminal HA or FLAG tag; experiment: as above
[7] = molecular target: D3H44 light chain Q124R_Q160K_T178R (Kabat) with N-terminal HA or FLAG tag; experiment: LCCA, SPR read-out of light-chain tags; light-chain DNA 1:3 normalized to 1:1; competing light chain m28
[8] = molecular target: D3H44 light chain Q124E_V133E_Q160F (Kabat) with N-terminal HA or FLAG tag; experiment: LCCA, SPR read-out of light-chain tags; light-chain DNA 1:3 normalized to 1:1; competing light chain m23
[9] = molecular target: D3H44 light chain Q124R (Kabat) with N-terminal HA or FLAG tag; experiment: LCCA, SPR read-out of light-chain tags; light-chain DNA 1:3 normalized to 1:1; competing light chain m24
[10] = molecular target: D3H44 light chain Q124R_T178K (Kabat) with N-terminal HA or FLAG tag; experiment: LCCA, SPR read-out of light-chain tags; light-chain DNA 1:3 normalized to 1:1; competing light chain m17
[11] = molecular target: D3H44 light chain T178R (Kabat) with N-terminal HA or FLAG tag; experiment: as above
[12] = molecular target: D3H44 light chain Q124K_T178R (Kabat) with N-terminal HA or FLAG tag; experiment: as above
[13] = molecular target: D3H44 light chain Q124R_Q160K_T178R (Kabat) with N-terminal HA or FLAG tag; experiment: as above
[14] = molecular target: D3H44 light chain Q124E_T180E (Kabat) with N-terminal HA or FLAG tag; experiment: LCCA, SPR read-out of light-chain tags; light-chain DNA 1:3 normalized to 1:1; competing light chain m18
[15] = molecular target: D3H44 light chain Q124E_Q160E_T180E (Kabat) with N-terminal HA or FLAG tag; experiment: as above
[16] = molecular target: D3H44 light chain Q124E_Q160E_T180E (Kabat) with N-terminal HA or FLAG tag; experiment: LCCA, SPR read-out of light-chain tags; light-chain DNA 1:3 normalized to 1:1; competing light chain m26
[17] = molecular target: D3H44 light chain Q124E_Q160E_T180E (Kabat) with N-terminal HA or FLAG tag; experiment: LCCA, SPR read-out of light-chain tags; light-chain DNA 1:3 normalized to 1:1; competing light chain m20
[18] = molecular target: D3H44 light chain T178R (Kabat) with N-terminal HA or FLAG tag; experiment: LCCA, SPR read-out of light-chain tags; light-chain DNA 1:3 normalized to 1:1; competing light chain m19
[19] = molecular target: D3H44 light chain Q124E_Q160E_T180E (Kabat) with N-terminal HA or FLAG tag; experiment: LCCA, SPR read-out of light-chain tags; light-chain DNA 1:3 normalized to 1:1; competing light chain m16
[20] = molecular target: D3H44 light chain Q124R_Q160K_T178R (Kabat) with N-terminal HA or FLAG tag; experiment: LCCA, SPR read-out of light-chain tags; light-chain DNA 1:3 normalized to 1:1; competing light chain m30
[21] = molecular target: D3H44 light chain S131E (Kabat) with N-terminal HA or FLAG tag; experiment: LCCA, SPR read-out of light-chain tags; light-chain DNA 1:3 normalized to 1:1; competing light chain m20
[22] = molecular target: D3H44 light chain Q124E_T178E (Kabat) with N-terminal HA or FLAG tag; experiment: as above
[23] = molecular target: D3H44 light chain Q124E_Q160E_T178E (Kabat) with N-terminal HA or FLAG tag; experiment: as above
[24] = molecular target: D3H44 light chain Q124R_Q160K_T178R (Kabat) with N-terminal HA or FLAG tag; experiment: LCCA, SPR read-out of light-chain tags; light-chain DNA 1:3 normalized to 1:1; competing light chain m25
[25] = molecular target: D3H44 light chain Q124R_Q160K_T178R (Kabat) with N-terminal HA or FLAG tag; experiment: LCCA, SPR read-out of light-chain tags; light-chain DNA 1:3 normalized to 1:1; competing light chain m27
[26] = molecular target: D3H44 Fab heavy chain L143E_K145T_S188L; experiment: LCCA, L1:L2 DNA 1:3 normalised to 1:1, SPR of light chain tags; competitor m33
[27] = molecular target: D3H44 Fab heavy chain L143A_Q179K; experiment: as above
[28] = molecular target: D3H44 light chain Q124E_Q160E_T180E (Kabat) with N-terminal HA or FLAG tag; experiment: LCCA, SPR read-out of light-chain tags; light-chain DNA 1:9 normalized to 1:1; competing light chain m21
[29] = molecular target: D3H44 light chain Q124R_T178R (Kabat) with N-terminal HA or FLAG tag; experiment: LCCA, SPR read-out of light-chain tags; light-chain DNA 1:3 normalized to 1:1; competing light chain m17
[30] = molecular target: D3H44 light chain Q124R_T178R (Kabat) with N-terminal HA or FLAG tag; experiment: LCCA, SPR read-out of light-chain tags; light-chain DNA 1:3 normalized to 1:1; competing light chain m22
[31] = molecular target: D3H44 light chain Q124R_T178R (Kabat) with N-terminal HA or FLAG tag; experiment: LCCA, SPR read-out of light-chain tags; light-chain DNA 1:9 normalized to 1:1; competing light chain m17
[32] = molecular target: D3H44 light chain Q124E_S131T_T178F_T180E (Kabat) with N-terminal HA or FLAG tag; experiment: LCCA, SPR read-out of light-chain tags; light-chain DNA 1:3 normalized to 1:1; competing light chain m21
[33] = molecular target: D3H44 light chain Q124E_Q160E_T180E (Kabat) with N-terminal HA or FLAG tag; experiment: as above

Substance: D3H44 Fab heavy chain L143R (Kabat) with C-terminal ABD2-His6 tag
H2L2:H2L1 normalized median ratio [8]: 83%
H2L2:H2L1 normalized median ratio [9]: 17%

Substance: D3H44 Fab heavy chain L143E_K145T_Q179E (Kabat) with C-terminal ABD2-His6 tag
H1L1:H1L2 normalized median ratio [10]: 83%
H1L1:H1L2 normalized median scalar value ln(r1/f1) [10]: 1.62
H1L1:H1L2 normalized median ratio [11]: 89%
H1L1:H1L2 normalized median scalar value ln(r1/f1) [11]: 2.14
H1L1:H1L2 normalized median ratio [12]: 88%
H1L1:H1L2 normalized median scalar value ln(r1/f1) [12]: 2
H1L1:H1L2 normalized median ratio [13]: 84%
H1L1:H1L2 normalized median scalar value ln(r1/f1) [13]: 1.65
H1L1:H1L2 normalized median ratio [14]: 40%
H1L1:H1L2 normalized median ratio [15]: 11%
H1L1:H1L2 normalized median ratio [16]: 17%
H1L1:H1L2 normalized median ratio [17]: 16%
H1L1:H1L2 normalized median ratio [18]: 60%
H1L1:H1L2 normalized median scalar value ln(r1/f1) [18]: 0.41
H1L1:H1L2 normalized median ratio [19]: 12% and 17%

Substance: D3H44 Fab heavy chain Q179R (Kabat) with C-terminal ABD2-His6 tag
H2L2:H2L1 normalized median ratio [20]: 3%
H2L2:H2L1 normalized median ratio [3]: 4%
H2L2:H2L1 normalized median ratio [5]: 96%
H2L2:H2L1 normalized median ratio [21]: 97%

Substance: D3H44 Fab heavy chain S186R (Kabat) with C-terminal ABD2-His6 tag
H2L2:H2L1 normalized median ratio [28]: 86%
H2L2:H2L1 normalized median ratio [10]: 17%
H2L2:H2L1 normalized median ratio [11]: 28%
H2L2:H2L1 normalized median ratio [29]: 19%
H2L2:H2L1 normalized median ratio [12]: 18%
H2L2:H2L1 normalized median ratio [13]: 20%
H2L2:H2L1 normalized median ratio [14]: 96%
H2L2:H2L1 normalized median ratio [15]: 72%
H2L2:H2L1 normalized median ratio [2]: 12%
H2L2:H2L1 normalized median ratio [30]: 10%
H2L2:H2L1 normalized median ratio [3]: 10%
H2L2:H2L1 normalized median ratio [16]: 83%
H2L2:H2L1 normalized median ratio [4]: 88%
H2L2:H2L1 normalized median ratio [22]: 96%
H2L2:H2L1 normalized median ratio [5]: 90%
H2L2:H2L1 normalized median ratio [23]: 95%
H2L2:H2L1 normalized median ratio [6]: 95%
H2L2:H2L1 normalized median ratio [17]: 80%
H2L2:H2L1 normalized median ratio [31]: 14%
H2L2:H2L1 normalized median ratio [32]: 90%
H2L2:H2L1 normalized median ratio [33]: 81%
H2L2:H2L1 normalized median ratio [18]: 4%
H2L2:H2L1 normalized median ratio [7]: 5%
H2L2:H2L1 normalized median ratio [24]: 5%
H2L2:H2L1 normalized median ratio [25]: 4%
H2L2:H2L1 normalized median ratio [19]: 82%

Now from value to substance:

H1L1:H1L2 normalized median scalar value ln(r1/f1) [1]: -0.16
Substance: D3H44 light chain Q124R_T178R

H1L1:H1L2 normalized median ratio [2]: 74%
H1L1:H1L2 normalized median scalar value ln(r1/f1) [2]: 1.03
H1L1:H1L2 normalized median ratio [3]: 59%
H1L1:H1L2 normalized median scalar value ln(r1/f1) [3]: 0.37
H1L1:H1L2 normalized median ratio [4]: 26%
H1L1:H1L2 normalized median ratio [5]: 41%
H1L1:H1L2 normalized median ratio [6]: 43%
H1L1:H1L2 normalized median ratio [7]: 57%
H1L1:H1L2 normalized median scalar value ln(r1/f1) [7]: 0.28
Substance: D3H44 Fab heavy chain L143E_K145T_S188L (Kabat) with C-terminal ABD2-His6 tag

H1L1:H1L2 normalized median ratio [20]: 47%
H1L1:H1L2 normalized median scalar value ln(r1/f1) [20]: -0.14
H1L1:H1L2 normalized median ratio [13]: 72%
H1L1:H1L2 normalized median scalar value ln(r1/f1) [13]: 0.95 and 0.96
H1L1:H1L2 normalized median ratio [8]: 15%
H1L1:H1L2 normalized median ratio [22]: 41%
H1L1:H1L2 normalized median ratio [21]: 53%
H1L1:H1L2 normalized median ratio [23]: 41%
H1L1:H1L2 normalized median ratio [17]: 28%
H1L1:H1L2 normalized median ratio [9]: 85%
H1L1:H1L2 normalized median scalar value ln(r1/f1) [9]: 1.75
H1L1:H1L2 normalized median ratio [24]: 59%
H1L1:H1L2 normalized median scalar value ln(r1/f1) [24]: 0.37
H1L1:H1L2 normalized median ratio [25]: 59%
H1L1:H1L2 normalized median scalar value ln(r1/f1) [25]: 0.36
Substance: D3H44 Fab heavy chain L143E_K145T (Kabat) with C-terminal ABD2-His6 tag

H2L2:H2L1 normalized median ratio [26]: 44%
H1L1:H1L2 normalized median ratio [27]: 96%
H1L1:H1L2 normalized median scalar value ln(r1/f1) [27]: 3.13
Substance: D3H44 light chain Q124E_V133Y_T180E

H1L1:H1L2 normalized median ratio [28]: 18%
H1L1:H1L2 normalized median ratio [11]: 76%
H1L1:H1L2 normalized median scalar value ln(r1/f1) [11]: 1.13
H1L1:H1L2 normalized median ratio [29]: 87%
H1L1:H1L2 normalized median scalar value ln(r1/f1) [29]: 1.9
H1L1:H1L2 normalized median ratio [12]: 86%
H1L1:H1L2 normalized median scalar value ln(r1/f1) [12]: 1.78
H1L1:H1L2 normalized median ratio [13]: 84%
H1L1:H1L2 normalized median scalar value ln(r1/f1) [13]: 1.68
H1L1:H1L2 normalized median ratio [15]: 24%
H1L1:H1L2 normalized median ratio [17]: 16%
H1L1:H1L2 normalized median ratio [31]: 82%
H1L1:H1L2 normalized median scalar value ln(r1/f1) [31]: 1.55
H1L1:H1L2 normalized median ratio [33]: 13%
H1L1:H1L2 normalized median ratio [19]: 14%
Substance: D3H44 Fab heavy chain L143E_K145T_Q179D (Kabat) with C-terminal ABD2-His6 tag
